The target of one experiment is T1, OV064 peptide 157-176 (human).
T1 construct: 20-mer synthetic peptide on nitrocellulose; also called OV064 AA 157-176
T1 peptide: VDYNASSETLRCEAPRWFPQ
Nature of the experiment: peptide array (20-mer on nitrocellulose). The procedure: (§1) Epitope mapping. A variety of techniques are available to determine epitopes specific for any particular antibody. For example, constructs of OV064 truncations were generated in a pCMV3 vector. Constructs representing amino acids 32-282, 133-282, 167-282 and 183-282 of the OV064 protein sequence were generated as N-terminally FLAG tagged proteins that when transfected into 293 cells, will be expressed on the cell surface. OV064 specific antibodies sc077, sc189, sc209 an 8G5 were tested for binding to these expressed constructs by flow cytometry, as described above. Furthermore, epitopes were analyzed using the Novatope system (Novagen Inc). Briefly, OV064 cDNA was treated with DNAse and fragments representing 15-600 bp were cloned into a bacterial expression vector. Each mAb was tested against 2000 clones representing OV064 fragments and each positive clone was picked and sequenced. The minimal common sequence between each of these clones was designated as the epitope to which each antibody bound. Additionally, a synthetic peptide map was utilized for identifying anti-OV064 epitopes. Briefly, 20 amino acid peptides each overlapping with 15 amino acids were printed on a nitrocellulose filter and incubated with anti-OV064 specific antibodies. Peptide spots that reacted strongly with the OV064 specific antibodies indicated the presence of an OV064 epitope.
(§2) As described above in the methods, various approaches to determine epitope mapping of OV064 specific mAbs were used. […] The other methods confirmed the results depicted in Table 5.

A further experiment deals with T2, OV064 peptide 167-186 (human).
T2 construct: 20-mer synthetic peptide on nitrocellulose; also called OV064 AA 167-186
T2 peptide: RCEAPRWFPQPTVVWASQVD
The experiment in a line: peptide array (20-mer on nitrocellulose). The procedure: as §1, §2

Another experiment has as its target T3, OV064 peptide 172-191 (human).
T3 construct: 20-mer synthetic peptide on nitrocellulose; also called OV064 AA 172-191
T3 peptide: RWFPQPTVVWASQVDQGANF
The experiment in a line: peptide array (20-mer on nitrocellulose). As for the experimental part: as §1, §2

A further experiment addresses T4, OV064 peptide 162-181 (human).
T4 construct: 20-mer synthetic peptide on nitrocellulose; also called OV064 AA 162-181
T4 peptide: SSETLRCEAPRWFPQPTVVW
The experiment in a line: peptide array (20-mer on nitrocellulose). As for the experimental part: as §1, §2

The target of experiment [1] is T5, OV064(32-282) expressed on transfected ES-2 ovarian carcinoma cells (human, UniProt Q7Z7D3 32-282).
T5 construct: also called ES-2_OV064; ES2/OV064
T5 sequence: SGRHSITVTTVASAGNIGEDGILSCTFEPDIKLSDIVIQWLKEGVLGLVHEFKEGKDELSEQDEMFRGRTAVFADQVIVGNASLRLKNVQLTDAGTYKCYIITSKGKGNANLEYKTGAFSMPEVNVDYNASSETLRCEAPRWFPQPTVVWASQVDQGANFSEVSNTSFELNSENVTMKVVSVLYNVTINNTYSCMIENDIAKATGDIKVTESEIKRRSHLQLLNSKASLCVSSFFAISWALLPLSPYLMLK
The experiment in a line: flow cytometry on OV064 expressing cells. As for the experimental part:
Analysis of mAb by flow cytometry. 50,000-100,000 test cells were prepared in 100 ul phosphate buffered saline+1% fetal bovine serum (PBSS). 50 ul of test reagent (either hybridoma supernatants, mouse serum or purified mAb) was added, and incubated 30-45 min on ice, then washed 2-3 times in PBSS. 50 ul of fluorescently labeled secondary antibody (Anti-Mouse IgG or Anti-Human IgG) was then added, and incubated 30-45 minutes on ice and washed. The cells were then resuspended in 300 ul of PBSS and analyzed by flow cytometer (FACSCalibur, Becton Dickinson) to assess amount of cell surface bound antibody.
Each human mAb (mAb sc77, mAb sc189, and mAb sc209) bound purified recombinant OV064-His fusion protein in ELISA analysis.

Experiment [2] has as its target T5, OV064(32-282) expressed on transfected …. The experiment in a line: cell-based or functional assay.
Another experiment addresses T6, OV064 peptide 237-256 (human).
T6 construct: 20-mer synthetic peptide on nitrocellulose; also called OV064 AA 237-256
T6 peptide: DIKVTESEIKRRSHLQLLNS
Nature of the experiment: peptide array (20-mer on nitrocellulose). The procedure: as §1, §2

The next experiment has as its target T7, OV064 peptide 238-257 (human).
T7 construct: 20-mer synthetic peptide on nitrocellulose; also called OV064 AA 238-257
T7 peptide: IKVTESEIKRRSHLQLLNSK
Nature of the experiment: peptide array (20-mer on nitrocellulose). The procedure: as §1, §2

In the next experiment the target is T8, OV064 peptide 177-196 (human).
T8 construct: 20-mer synthetic peptide on nitrocellulose; also called OV064 AA 177-196
T8 peptide: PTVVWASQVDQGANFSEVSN
The experiment in a line: peptide array (20-mer on nitrocellulose). As for the experimental part:
as §1, §2

B1: human monoclonal antibody mAb sc77 (antibody, human IgG1, kappa, V domains shown)
VH: QVQLVESGGGVVQPGRSLRLSCAASGFTFSSYGMHWVRQAPGKGLEWVAVIWYDGNNKYYADSVKGRFTISRDNSKNTLYLQMNSLRAEDTAVYYCARTSGIAAFDYWGQGTLVTVSS
VL: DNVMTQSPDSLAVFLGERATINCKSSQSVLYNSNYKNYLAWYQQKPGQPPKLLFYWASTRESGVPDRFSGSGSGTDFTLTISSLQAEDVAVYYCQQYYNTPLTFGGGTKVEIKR
notes: Human IgG1 kappa; also called sc077; Ov64sc77
On to B1, for which the binding result in the experiment with OV064 peptide 157-176, in the experiment with OV064 peptide 167-186, in the experiment with OV064 peptide 172-191 and with OV064 peptide 162-181 was “binds” each time. The “FCM (MFI max)” value in [1] was determined as 780 MFI. Moreover, in experiment [2], the “ICA (EC50)” value turned out to be 123 pM.

B2: human monoclonal antibody mAb sc189 (antibody, human IgG1, kappa, V domains shown)
VH: EVQLVESGGGLVQPGGSLRLSCAASGFSFSSYDMHWVRQATGKGLEWVSGIDIAGDTYYPGSVKGRFTISRENAKNSLYLQMNSLRAGDTAVYYCARGDYDGTFDYWGQGTLVTVSS
VL: DIVMTQTPLSSPVTLGQPASISCRSSQSLVHSDGNTYLSWLQQRPGQPLRLLFYKISNRFSGVPDRFSGSGAGTDFTLIINRVEAEDVGVYYCMHATQFPITFGQGTRLEIKR
notes: Human IgG1 kappa; also called Ov64sc189
Regarding B2, the binding result in the experiment with OV064 peptide 237-256 and with OV064 peptide 238-257 was “binds” each time. In addition, the “FCM (MFI max)” value in [1] is 820 MFI. In [2], the “ICA (EC50)” value came out at 60 pM.

B3: human monoclonal antibody mAb sc209 (antibody, human IgG1, kappa, V domains shown)
VH: GVQLVESGGGLVQPGGSLRLSCAASGFTISRNDMHWVRQATGKGLEWVSAIGTGGDTYYPGSVKGRFTISRENAKNSLYLQMNSLRAGDTAVYYCARGHMTTFGGFIVIGNGMDVWGQGTTVTVSS
VL: not shown
notes: Human IgG1 kappa; also called Ov64sc209
B3: the binding result in the experiment with OV064 peptide 157-176, with OV064 peptide 167-186, with OV064 peptide 172-191, in the experiment with OV064 peptide 162-181 and in the experiment with OV064 peptide 177-196 was “binds” throughout. Besides, in experiment [1], the “FCM (MFI max)” value came out at 700 MFI. Further, in experiment [2], the “ICA (EC50)” value was found to be 53 pM.
